Drawing on paper PMC5737116, “Biochemical Properties of Human D-Amino Acid Oxidase” (Frontiers in Molecular Biosciences, 2017), this text covers Km, kcat and kcat/Km for one substance.

The Km is the substrate concentration at which the rate is half of its maximum.

Common to all, as to conditions: other: apparent, 21% oxygen saturation, pH 8.5, 25°C
Data set [1] deals with N[C@H](Cc1ccc(O)c(O)c1)C(=O)O. The data set is described as follows: purified protein, by the assay type.
The next data set has as its system T1, N[C@@H]1CON=C1O.
T1 construct: made in house; host or cells: E. coli
The data set is described as follows: Oxygen-consumption activity assay, apparent kinetic parameters (substrate specificity). In kind it is biochemical, human.

In a further data set the test system is T2, N[C@H](CS)C(=O)O.
T2 construct: made in house; host or cells: E. coli
Described as above. In kind it is biochemical, human.

Sequence of human DAAO (Homo sapiens) (chain, as listed by the source): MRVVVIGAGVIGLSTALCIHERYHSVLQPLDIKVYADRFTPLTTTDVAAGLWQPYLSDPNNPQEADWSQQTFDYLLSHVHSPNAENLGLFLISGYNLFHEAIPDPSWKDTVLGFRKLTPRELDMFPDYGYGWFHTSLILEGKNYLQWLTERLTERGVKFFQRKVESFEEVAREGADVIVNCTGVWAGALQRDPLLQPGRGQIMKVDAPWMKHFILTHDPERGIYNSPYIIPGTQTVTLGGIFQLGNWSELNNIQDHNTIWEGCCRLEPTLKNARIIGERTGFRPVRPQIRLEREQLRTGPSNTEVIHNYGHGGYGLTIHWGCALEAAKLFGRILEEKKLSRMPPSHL

As for human DAAO (Homo sapiens), in data set [1], the Km is reported as 6 mM, the kcat is 40.5 ± 5.1 [21.7]^d s^−1 and the kcat/Km is 6.75 [14.4]^d mM^−1 x s^−1. Besides, in the data set on N[C@@H]1CON=C1O, the Km is 83.5 ± 15.0 mM, the kcat is 0.77 ± 0.05 s⁻¹ and the kcat/Km worked out at 9 M⁻¹ s⁻¹. In the data set on N[C@H](CS)C(=O)O, the Km was found to be 0.6 ± 0.1 mM, the kcat was 8.6 ± 0.2 s⁻¹ and the kcat/Km was 14600 M⁻¹ s⁻¹.
